The target of experiment [1] is Nucleolysin TIA-1 (endogenous mouse TIA1) (mouse) (UniProt P52912). Nature of the experiment: TIA1 IP-MS, tau KO 1 cortex.
For experiment [2] the target is unchanged. Nature of the experiment: TIA1 IP-MS, tau KO 2 cortex.
Experiment [3] shares this target. Nature of the experiment: TIA1 IP-MS, WT1 cortex.
Experiment [4] has the same target. Nature of the experiment: TIA1 IP-MS, WT2 cortex.
Experiment [5] shares this target. Nature of the experiment: TIA1 IP-MS, tau KO 3 cortex.
The target is the same in experiment [6]. Nature of the experiment: TIA1 IP-MS, WT3 cortex.

Sequence of UniProt P52912 (P52912 whole entry): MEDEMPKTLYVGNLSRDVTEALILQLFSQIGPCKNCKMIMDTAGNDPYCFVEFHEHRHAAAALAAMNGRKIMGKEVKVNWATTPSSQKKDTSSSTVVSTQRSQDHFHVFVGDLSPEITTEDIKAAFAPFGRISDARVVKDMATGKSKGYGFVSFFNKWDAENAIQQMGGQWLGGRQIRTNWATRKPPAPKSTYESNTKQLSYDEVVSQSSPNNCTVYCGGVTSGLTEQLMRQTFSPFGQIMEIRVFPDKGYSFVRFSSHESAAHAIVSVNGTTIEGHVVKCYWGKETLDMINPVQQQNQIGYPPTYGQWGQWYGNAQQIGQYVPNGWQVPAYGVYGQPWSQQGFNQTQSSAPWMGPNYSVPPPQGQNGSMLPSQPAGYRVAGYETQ

On to “Isoform Glt-1A of Excitatory amino acid transporter 2 (from UniProt P43006 1-569)”, for which the total ion current (normalized to TIA1 = 1000) in experiment [1] was 0; in experiment [2], 96.4; in experiment [3] it was 0; in experiment [4] it was 187; in experiment [5] it was 0; in experiment [6] it was 298.

“Cluster of Phosphatidylinositol 5-phosphate 4-kinase type-2 alpha (from UniProt O70172 2-405)”: the total ion current (normalized to TIA1 = 1000) in experiment [1] was 0; in experiment [2], 6.9; in experiment [3] it was 0; in experiment [4], 75.3; in experiment [5], 0; in experiment [6], 18.8.

Take “Protein kinase C and casein kinase substrate in neurons protein 1 (from UniProt Q61644 1-441)”: the total ion current (normalized to TIA1 = 1000) was 0 in experiment [1]; 31.2 in experiment [2]; 0 in experiment [3]; 70.2 in experiment [4]; 0 in experiment [5]; 18.4 in experiment [6].

Turning to “Serine/arginine-rich splicing factor 4 (from UniProt Q8VE97 1-489)”, the total ion current (normalized to TIA1 = 1000) was 0 in experiment [1]; 0 in experiment [2]; 0 in experiment [3]; 41.6 in experiment [4]; 0 in experiment [5]; 0 in experiment [6].

With “High mobility group protein B1 (from UniProt P63158 1-215)”, the total ion current (normalized to TIA1 = 1000) is 15.7 in experiment [1]; 60.8 in experiment [2]; 6.6 in experiment [3]; 182 in experiment [4]; 0 in experiment [5]; 38 in experiment [6].

In the case of “Isoform 2 of ATP-dependent 6-phosphofructokinase, muscle type (from UniProt P47857 1-850)”, the total ion current (normalized to TIA1 = 1000) in experiment [1] turned out to be 0; in experiment [2], 75.8; in experiment [3], 0; in experiment [4], 62.9; in experiment [5], 0; in experiment [6], 36.3.

As for “Dihydrolipoyl dehydrogenase, mitochondrial (from UniProt O08749 36-509)”, the total ion current (normalized to TIA1 = 1000) in experiment [1] turned out to be 0; in experiment [2], 31.3; in experiment [3], 0; in experiment [4] it was 107; in experiment [5], 0; in experiment [6], 0.

As for “Mitochondrial glutamate carrier 1 (from UniProt Q9D6M3 1-323)”, the total ion current (normalized to TIA1 = 1000) in experiment [1] was 0; in experiment [2], 12.2; in experiment [3], 0; in experiment [4], 136; in experiment [5], 0; in experiment [6] it was 85.

With “Protein NipSnap homolog 1 (from UniProt O55125 36-284)”, the total ion current (normalized to TIA1 = 1000) in experiment [1] stood at 0; in experiment [2] it was 27; in experiment [3] it was 0; in experiment [4], 219; in experiment [5] it was 0; in experiment [6], 0.

With “Glycerol-3-phosphate dehydrogenase, mitochondrial (from UniProt Q64521 43-727)”, the total ion current (normalized to TIA1 = 1000) in experiment [1] was determined as 18.8; in experiment [2], 0; in experiment [3], 3.01; in experiment [4] it was 0; in experiment [5], 0; in experiment [6] it was 0.

With “Prohibitin-2 (from UniProt O35129 2-299)”, the total ion current (normalized to TIA1 = 1000) amounted to 0 in experiment [1]; 292 in experiment [2]; 0 in experiment [3]; 440 in experiment [4]; 0 in experiment [5]; 171 in experiment [6].

As to “Guanine nucleotide-binding protein G(z) subunit alpha (from UniProt O70443 2-355)”, the total ion current (normalized to TIA1 = 1000) worked out at 0 in experiment [1]; 0 in experiment [2]; 0 in experiment [3]; 59.4 in experiment [4]; 0 in experiment [5]; 0 in experiment [6].

Turning to “Transformer-2 protein homolog beta (from UniProt P62996 2-288)”, the total ion current (normalized to TIA1 = 1000) in experiment [1] was 0; in experiment [2] it was 33.3; in experiment [3], 0; in experiment [4], 70.9; in experiment [5], 0; in experiment [6], 0.

Take “Isoform 4 of Phosphatase and actin regulator 1 (from UniProt Q2M3X8 1-649)”: the total ion current (normalized to TIA1 = 1000) was 0 in experiment [1]; 0 in experiment [2]; 0 in experiment [3]; 48.2 in experiment [4]; 0 in experiment [5]; 0 in experiment [6].

Regarding “Serine protease HTRA1 (from UniProt Q9R118 23-480)”, the total ion current (normalized to TIA1 = 1000) stood at 7.66 in experiment [1]; 0 in experiment [2]; 5.71 in experiment [3]; 0 in experiment [4]; 0 in experiment [5]; 0 in experiment [6].

Turning to “U1 small nuclear ribonucleoprotein 70 kDa (from UniProt Q62376 2-448)”, the total ion current (normalized to TIA1 = 1000) in experiment [1] amounted to 0; in experiment [2] it was 0; in experiment [3] it was 6.22; in experiment [4] it was 0; in experiment [5] it was 0; in experiment [6], 0.

For the substance “Probable ATP-dependent RNA helicase DDX17 (from UniProt Q501J6 1-650)”, the total ion current (normalized to TIA1 = 1000) in experiment [1] was determined as 0; in experiment [2], 34.1; in experiment [3] it was 0; in experiment [4] it was 135; in experiment [5] it was 0; in experiment [6], 0.

Values taken from patent US20190142860A1, “NUCLEIC ACID BASED TIA-1 INHIBITORS” (Aquinnah Pharmaceuticals, Inc., priority 2015, published 2019).
